Test results taken from article PMC8212047.

Key:
Experiment in all cases: SPR
[1] = biological target: CB6 (human)
[2] = biological target: RGN10933 (human)
[3] = biological target: RGN10987 (human)

Measured: binding relative to WT RBD

Sequence of RGN10987 (human) (heavy, as listed by the source, chain 1 of 2): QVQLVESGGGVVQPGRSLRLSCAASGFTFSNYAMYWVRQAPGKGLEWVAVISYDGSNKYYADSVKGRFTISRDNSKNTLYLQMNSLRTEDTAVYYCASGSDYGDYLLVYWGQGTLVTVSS
Sequence of RGN10987 (human) (light, as listed by the source, chain 2 of 2): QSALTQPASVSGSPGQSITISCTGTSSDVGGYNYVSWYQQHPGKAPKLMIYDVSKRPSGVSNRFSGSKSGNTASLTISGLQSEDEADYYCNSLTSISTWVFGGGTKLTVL
Sequence of RGN10933 (human) (heavy, as listed by the source, chain 1 of 2): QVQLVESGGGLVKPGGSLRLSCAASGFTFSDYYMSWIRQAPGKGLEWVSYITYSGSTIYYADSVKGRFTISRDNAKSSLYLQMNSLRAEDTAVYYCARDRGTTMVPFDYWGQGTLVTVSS
Sequence of RGN10933 (human) (light, as listed by the source, chain 2 of 2): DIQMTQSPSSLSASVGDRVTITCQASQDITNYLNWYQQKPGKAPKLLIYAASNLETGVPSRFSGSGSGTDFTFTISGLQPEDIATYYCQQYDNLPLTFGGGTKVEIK

RBD A475V-FC fusion protein (from UniProt P0DTC2)
> 50%: all assays above

RBD T345I-FC fusion protein (from UniProt P0DTC2)
> 50%: all assays above

RBD Y505W-FC fusion protein (from UniProt P0DTC2)
> 50%: all assays above
